The values below come from US20160319321.

Data set [1] concerns the target T1, DVKEGQPLYDEGDR-[Arg34]GLP-1(9-37).
T1 chain: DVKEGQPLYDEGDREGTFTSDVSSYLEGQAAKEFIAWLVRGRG

Data set [2] has as its target T2, Lys(Dnp)-DWGDR-EGTFT-Lys(Abz)amide.
T2 chain: KDWGDREGTFTK

Data set [3] concerns the target T3, Lys(Dnp)-EDEGDR-HAEGT-Lys(Abz)amide.
T3 chain: KEDEGDRHAEGTK

The target of data set [4] is T4, Lys(Dnp)-EGGDR-HGEGT-Lys(Abz)amide.
T4 chain: KEGGDRHGEGTK

For data set [5], the target named is T5, Lys(Dnp)-GDEGDR-HAEGT-Lys(Abz)amide.
T5 chain: KGDEGDRHAEGTK

The target in data set [6] is T6, Lys(Dnp)-HDEGDR-HAEGT-Lys(Abz)amide.
T6 chain: KHDEGDRHAEGTK

In data set [7] the target is T7, Lys(Dnp)-IMGDRHAEGT-Lys(Abz)amide.
T7 chain: XIMGDRHAEGTX

Data set [8] has as its target T8, Lys(Dnp)-PEGDR-HAEGT-Lys(Abz)amide.
T8 chain: KPEGDRHAEGTK

The target in data set [9] is T9, Lys(Dnp)-TDEGDR-HAEGT-Lys(Abz)amide.
T9 chain: KTDEGDRHAEGTK

B1: bovine Enterokinase light chain variant (C112A, L134K, I135K) (protein)
chain: IVGGSDSREGAWPWVVALYFDDQQVCGASLVSRDWLVSAAHCVYGRNMEPSKWKAVLGLHMASNLTSPQIETRLIDQIVINPHYNKRRKNNDIAMMHLEMKVNYTDYIQPIALPEENQVFPPGRICSIAGWGAKKYQGSTADVLQEADVPLLSNEKCQQQMPEYNITENMVCAGYEAGGVDSCQGDSGGPLMCQENNRWLLAGVTSFGYQCALPNRPGVYARVPRFTEWIQSFLH
On to B1, for which the Activity (%) in [1] was determined as 913%; in [2], 410%; in data set [3], 159%; in data set [4], 279%; in data set [5] it was 267%; in [6], 204%. Further, the Activity (%) in [7] turned out to be 125%; in [8] it was 441%; in data set [9], 237%.
